Reference: patent WO2018007923A2 (dated 2018)
Changes are numbered by the printed parent chain. Blank lines part the entries; values can stand above or below the binder they belong to.

Legend:
[1] = molecular target: TTR-V122I (fibrils and oligomeric aggregates) (UniProt P02766 21-147); experiment: cell-based or functional assay
pH4.0-treated TTR [2] = molecular target: T1, pH4.0-treated TTR (human, UniProt P02766 21-147); experiment: ELISA, pH4-TTR captured by anti-His
pH4.0-treated TTR [3] = molecular target: T1, pH4.0-treated TTR; experiment: summary of Table 4; ELISA on pH4-TTR
pH4.0-treated TTR [4] = molecular target: T2, pH4.0-treated TTR (human, UniProt P02766 21-147); experiment: ELISA, pH4-TTR captured by anti-His; remark: listed apart in the source
pH4.0-treated TTR [5] = molecular target: T2, pH4.0-treated TTR; experiment: summary of Table 4; ELISA on pH4-TTR; remark: listed apart in the source

IC50 of inhibition of TTR-V122I fibrillation (ThT fluorescence) [1]: 28 µg/mL
B1: mouse monoclonal antibody 14G8 (antibody, V domains shown)
VH: EVKLVESGGGLVQPGGSLKLSCAASGFTFSSYTMSWVRQTPEKRLELVAEINNSGDTTYYPDTVKGRFTISRDNAKNTLYLQMSSLKSEDTAMYYCARHYYYGGGYGGWFFDVWGTGTTVTVSS
VL: DIVMTQAAPSVPVTPGESVSISCRSNKSLLHSNGNTYLYWFLQRPGQSPQLLIYRVSNLASGVPDRFSGSGSGTAFTLRISRVEAEDVGVYYCMQHLEYPLTFGAGTKLELKR

Kd (pH4.0-treated TTR [2]): 282 nM
Kd (pH4.0-treated TTR [3]): 257 nM
B2: mouse monoclonal antibody 9D5 (antibody, V domains shown)
VH: B1 VH with N52S, I70F
VL: DIVMTQAAPSVPVTPGESVSISCRSSKSLLHSNGNTYLYWFLQRPGQSPQLLIYRVSNLASGVPDRFSGSGSGTAFTLRISRVEAEDVGVYYCMQHLEYPLTFGAGTKLELK

Kd (pH4.0-treated TTR [4]): 16 nM
Kd (pH4.0-treated TTR [5]): 14.5 nM
B3: mouse monoclonal antibody 6C1 (antibody, V domains shown)
VH: EVQLVESGGGLVQPGGSLKLSCAASGFTFSNYYMSWVRQTPEKRLEWVAYISIDGNNIYHPDSVKGRFTISRDNAKNTLYLQMSSLKSEDTAMYYCARDSDYGYFDVWGTGTTVTVSS
VL: DVLMTQTPLSLPVSLGDQASISCRSSQSIVHSNGNTYLEWYLQKRGQSPKLLIYKVSKRFSGVPDRFSGSGSGTDFILKISRVEAEDLGVYYCFQGSHVPLTFGGGTKLELK
notes: also called m6C1; mis-TTR mAb 6C1
